Assay results from patent US20120107320A1 (UNIVERSITY COURT OF THE UNIVERSITY OF ABERDEEN, published 2012).

Biological target: T1, human soluble CTLA-4 (sCTLA-4), natural soluble form (human, UniProt P16410-5 36-174, limits assumed)
T1 construct: also called natural soluble CTLA-4; soluble form of cytotoxic T-lymphocyte antigen 4
T1 sequence (looked up): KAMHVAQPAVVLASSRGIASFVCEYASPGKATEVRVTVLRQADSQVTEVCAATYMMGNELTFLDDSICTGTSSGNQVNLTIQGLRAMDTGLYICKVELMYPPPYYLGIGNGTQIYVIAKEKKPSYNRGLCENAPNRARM
Assay: sandwich ELISA, capture with pan-specific mAb BNI3, detection with biotinylated JMW-3B3
Text: FIG. 7. Anti-sCTLA-4 JMW-3B3 distinguishes, in sera and culture supernatant, true natural soluble CTLA-4 from extracellular membrane-bound CTLA-4 (mCTLA-4). The extracellular portion of mCTLA-4 is encoded by exon 2 and is identical in sCTLA-4, mCTLA-4 and the recombinant soluble form of CTLA-4, CTLA4-Ig. […] Pan-specific anti-CTLA-4 mAb (clone BNI3) was used as the capture antibody.

binding result: binds
B1: monoclonal anti-sCTLA-4 antibody JMW-3B3 (antibody, mouse IgG1, V domains shown)
VH: EVKLVNSGGGLVQPGNSLRLSCATSGFTFTDFYMSWVRQPPGKALEWLGFVRNRANGYTTEYSVSVKGRFIISRDNFQSTLFLQMNTLRAEDSGTYYCVRGPGDTADYTMDYWGQGTSVTVSS
VL: QAVVTQESAFTTSPGGTVILTCRSSTGAVTTNNYANWVQEKPDHLFTGLIGGTSNRAPGVPVRFSGSLIGDKAALTITGAQTEDDGMYFCALWYTTHFVFGGGTKVT
notes: It was biotinylated for detection in the sandwich ELISAs; also called mAb JMW-3B3; anti-sCTLA-4 mAb
